This assay concerns P. aeruginosa (PA103 strain). The assay is described as follows: Mouse intraperitoneal infection model, antibody alone or combined with antibiotics, survival. Format: in vivo, BALB/c mice. The note with it: antibody 5 mg/kg i.p. 24h before infection; 3*LD90; 5 days; FIG. 12A. The procedure:
The ability of the optimized anti-PcrV antibody 7B1 or 8C1 to improve survival in mouse intraperitoneal infection model was evaluated in comparison to antibiotics Meropenem, Tobramycin, Ciprofloxacin; and also in comparison to combination treatment of 7B1 or 8C1 with either antibiotic. HIV-10E8 was used as negative control.
In a prophylactic model for anti-PcrV testing, 7-8 week old BALB/c mice (Vital River Laboratory) were intraperitoneally injected with antibody 24h before infection or with antibiotic 1h post infection. Specifically, the mice were administered with either optimized anti-PcrV antibody clone 7B1 or 8C1 (at 5 mg/kg), Meropenem (at 3 mg/kg), Tobramycin (at 10 mg/kg), Ciprofloxacin (at 30 mg/kg), or a combination of 7B1 or 8C1 with one of the antibiotics. To induce intraperitoneal infection, the BALB/c mice were intraperitoneally inoculated with P. aeruginosa (PA103 strain) suspended in a 300 μl inoculum at triple the lethal dose (3*LD90=7×10^5 CFU). Mouse survival was recorded for up to 5 days post-infection.

B1: 7B1: optimized anti-PcrV mAb clone; VH SEQ ID NO: 62, VL SEQ ID NO: 67 (antibody, V domains shown)
VH: EVQLLESGGGLVQPGGSLRLSCTASGFTFSDNYMSWVRQAPGKGLDWVSVISESGGSTNYADSVKGRFSTSRDNSKSTLYLDMNSLRAEDTAIYYCAKGRFSTLSSHFFRAVYGMDVWGQGTAVTVSS
VL: DIQLTQSPSSLSASVGDRVTITCRASQGISSYLAWYQQKPGKAPKLLIYAASTLQSGVPSRFSGSGSGTDFTLTISSLQPEDFATYYCQQLSSYPLTFGGGTKVEIK
In the case of B1, the “survival improvement of antibody alone relative to Meropenem (3 mg/kg)” value is recorded as “better or comparable survival improvement”.

The record behind these values is US12448434B2, “Antibodies specifically recognizing Pseudomonas PcrV and uses thereof” (priority 2019, dated 2025).
